# Data from the Human Domainome abundance scans (Beltran et al. 2025).
# ± gives the uncertainty stated by the source.
# B1: Zinc finger homeobox protein 3, residues 2244 to 2299; numbered along this chain, Q15911 (parent)
# chain: SSRTRFTDYQLRVLQDFFDANAYPKDDEFEQLSNLLNLPTRVIVVWFQNARQKARK
# Variants of: B1
# Test: abundance fitness (aPCA) (normalised: wild type 0, dead -1); higher = more abundant; growth selection in yeast, the domain comes from the species named
# Conditions: Homo sapiens
row,Variant,abundance fitness
1,I43R,-0.837 ± 0.094
2,I43L,-0.163 ± 0.11
3,I43Q,-0.637 ± 0.19
4,I43H,-1.13 ± 0.28
5,Y23K,-0.13 ± 0.099
6,Y23S,-0.051 ± 0.092
7,Y23T,-0.043 ± 0.093
8,Y23M,0.041 ± 0.092
9,Y23C,-0.283 ± 0.11
10,R5S,0.2 ± 0.072
11,R5K,0.29 ± 0.11
12,R5D,0.423 ± 0.084
13,R5I,0.323 ± 0.092
14,R5W,0.234 ± 0.097
15,R5P,0.026 ± 0.092
16,D16S,-0.023 ± 0.11
17,D16N,-0.222 ± 0.19
18,D16F,-0.596 ± 0.26
19,D16R,-0.035 ± 0.082
20,D16A,-0.353 ± 0.11
21,D16H,0.033 ± 0.15
22,V13S,-0.048 ± 0.088
23,V13M,0.173 ± 0.1
24,V13Q,0.168 ± 0.12

row,Variant,abundance fitness
1,V13C,-0.276 ± 0.15
2,V13T,-0.116 ± 0.11
3,V13G,-0.339 ± 0.084
4,V13F,-0.291 ± 0.19
5,R55L,-0.001 ± 0.074
6,R55V,-0.048 ± 0.11
7,R55W,-0.302 ± 0.17
8,R55H,0.104 ± 0.12
9,R55K,0.005 ± 0.24
10,R55I,-0.093 ± 0.097
11,R55P,0.051 ± 0.075
12,F6R,-0.703 ± 0.092
13,F6C,-0.345 ± 0.085
14,F6G,-0.633 ± 0.1
15,F6M,0.094 ± 0.11
16,F6K,-0.408 ± 0.16
17,N21G,-0.378 ± 0.087
18,N21P,-0.74 ± 0.18
19,N21A,-0.428 ± 0.1
20,N21H,0.031 ± 0.18
21,N21T,0.011 ± 0.13
22,N21R,-0.237 ± 0.083
23,N21V,-0.422 ± 0.099
24,N21L,-0.912 ± 0.12

row,Variant,abundance fitness
1,N21S,-0.157 ± 0.099
2,N21E,-0.262 ± 0.12
3,N21M,-0.394 ± 0.13
4,K56Y,-0.158 ± 0.16
5,K56N,0.103 ± 0.14
6,K56M,-0.045 ± 0.22
7,K56A,0.063 ± 0.2
8,K56Q,-0.163 ± 0.41
9,Q31M,-0.146 ± 0.12
10,Q31F,0.162 ± 0.27
11,Q31G,-0.055 ± 0.085
12,Q31L,-0.257 ± 0.11
13,Q31W,-0.279 ± 0.1
14,N34W,-0.61 ± 0.33
15,N34C,-0.343 ± 0.29
16,N34Y,-0.161 ± 0.41
17,N34D,-0.199 ± 0.26
18,N34Q,-0.208 ± 0.26
19,R41N,0.195 ± 0.093
20,R41Y,-0.119 ± 0.096
21,R41M,0.005 ± 0.1
22,R41W,-0.167 ± 0.14
23,R41D,0.173 ± 0.1
24,R41G,0.057 ± 0.079

row,Variant,abundance fitness
1,R41I,0.052 ± 0.091
2,R41C,-0.002 ± 0.1
3,R41V,0.108 ± 0.081
4,P24V,-0.657 ± 0.22
5,P24F,-0.533 ± 0.37
6,P24N,-0.922 ± 0.28
7,V44Q,-0.015 ± 0.15
8,V44S,0.08 ± 0.13
9,V44D,0.121 ± 0.19
10,V44W,-0.084 ± 0.12
11,F18W,-0.424 ± 0.13
12,F18N,-0.733 ± 0.29
13,F18G,-0.984 ± 0.11
14,F18C,-0.174 ± 0.12
15,F18Y,0.011 ± 0.18
16,D27M,-0.037 ± 0.088
17,D27G,0.095 ± 0.069
18,D27F,-0.233 ± 0.15
19,D27W,-0.157 ± 0.082
20,D27K,-0.113 ± 0.1
21,D27V,-0.215 ± 0.073
22,D27R,-0.147 ± 0.071
23,D27T,-0.078 ± 0.091
24,R12F,-0.738 ± 0.087

row,Variant,abundance fitness
1,R12H,0.051 ± 0.066
2,R12T,-0.136 ± 0.073
3,R12P,-0.794 ± 0.088
4,R12Y,-0.524 ± 0.081
5,R12K,0.169 ± 0.24
6,S1A,-0.047 ± 0.15
7,S1F,-0.357 ± 0.41
8,S1G,0.256 ± 0.15
9,S1V,-0.158 ± 0.2
10,S1I,0.252 ± 0.3
11,S1N,0.158 ± 0.3
12,A22D,0.219 ± 0.093
13,A22G,0.015 ± 0.079
14,A22R,-0.147 ± 0.069
15,A22K,-0.17 ± 0.11
16,A22P,0.101 ± 0.073
17,Q15W,-0.213 ± 0.099
18,Q15R,-0.213 ± 0.078
19,Q15L,-0.079 ± 0.095
20,Q15H,-0.036 ± 0.19
21,R51C,-0.168 ± 0.48
22,R51G,-0.606 ± 0.43
23,R51L,-0.137 ± 0.34
24,R51H,-0.382 ± 0.41

row,Variant,abundance fitness
1,L14R,-0.93 ± 0.1
2,L14K,-0.948 ± 0.17
3,L14W,-0.946 ± 0.15
4,L14S,-0.849 ± 0.12
5,L14A,-0.668 ± 0.12
6,L14V,-0.493 ± 0.091
7,L38G,-0.884 ± 0.094
8,L38K,-0.531 ± 0.17
9,L38Q,-0.174 ± 0.13
10,D26W,-0.376 ± 0.14
11,D26H,-0.683 ± 0.26
12,D26P,-0.163 ± 0.14
13,D26R,-0.16 ± 0.083
14,D26E,-0.214 ± 0.14
15,D26Y,-0.105 ± 0.15
16,D26G,-0.247 ± 0.096
17,Q48G,-0.029 ± 0.085
18,Q48L,-0.309 ± 0.12
19,Q48E,0.086 ± 0.14
20,Q48K,-0.034 ± 0.16
21,Q48S,-0.022 ± 0.1
22,Q48A,-0.146 ± 0.13
23,L36K,-0.95 ± 0.34
24,L36C,-0.313 ± 0.12

row,Variant,abundance fitness
1,L36P,-1.06 ± 0.25
2,L36A,-0.238 ± 0.13
3,L36V,0.024 ± 0.098
4,L36M,-0.375 ± 0.24
5,L36F,-0.659 ± 0.19
6,L36I,-0.459 ± 0.32
7,L36H,-1.06 ± 0.46
8,F47K,-0.983 ± 0.2
9,F47L,-0.639 ± 0.088
10,F47W,-0.399 ± 0.14
11,F47Y,-0.112 ± 0.094
12,F47I,-0.408 ± 0.096
13,F47V,-0.565 ± 0.083
14,F47D,-0.751 ± 0.13
15,F47T,-0.618 ± 0.095
16,F47Q,-1.02 ± 0.17
17,F47G,-0.66 ± 0.1
18,F47N,-0.928 ± 0.13
19,D19M,0.169 ± 0.47
20,D19V,-0.141 ± 0.27
21,D19T,0.046 ± 0.24
22,D19E,0.172 ± 0.23
23,N37H,-0.013 ± 0.16
